Assay results published in paper doi:10.1101/2025.08.11.669663 (bioRxiv, 2025).

B1: catalase (CAT) (natural protein, human (endogenous in HeLa), UniProt P04040 1-527, looked up)
chain: MADSRDPASDQMQHWKEQRAAQKADVLTTGAGNPVGDKLNVITVGPRGPLLVQDVVFTDEMAHFDRERIPERVVHAKGAGAFGYFEVTHDITKYSKAKVFEHIGKKTPIAVRFSTVAGESGSADTVRDPRGFAVKFYTEDGNWDLVGNNTPIFFIRDPILFPSFIHSQKRNPQTHLKDPDMVWDFWSLRPESLHQVSFLFSDRGIPDGHRHMNGYGSHTFKLVNANGEAVYCKFHYKTDQGIKNLSVEDAARLSQEDPDYGIRDLFNAIATGKYPSWTFYIQVMTFNQAETFPFNPFDLTKVWPHKDYPLIPVGKLVLNRNPVNYFAEVEQIAFDPSNMPPGIEASPDKMLQGRLFAYPDTHRHRLGPNYLHIPVNCPYRARVANYQRDGPMCMQDNQGGAPNYYPNSFGAPEQQPSALEHSIQYSGEVRRFNTANDDNVTQVRAFYVNVLNEEQRKRLCENIAGHLKDAQIFIQKKAVKNFTEVHPDYGSHIQALLDKYNAEKPKNAIHTFVQSGSHLAAREKANL
B2: peroxiredoxin 2 (PRDX2) (natural protein, human (endogenous in HeLa), UniProt P32119 1-198, looked up)
chain: MASGNARIGKPAPDFKATAVVDGAFKEVKLSDYKGKYVVLFFYPLDFTFVCPTEIIAFSNRAEDFRKLGCEVLGVSVDSQFTHLAWINTPRKEGGLGPLNIPLLADVTRRLSEDYGVLKTDEGIAYRGLFIIDGKGVLRQITVNDLPVGRSVDEALRLVQAFQYTDEHGEVCPAGWKPGSDTIKPNVDDSKEYFSKHN
B3: glyceraldehyde-3-phosphate dehydrogenase (GAPDH) (natural protein)
chain: not shown
B4: PRIM2 (a DNA primase subunit) (natural protein, human (endogenous in HeLa), UniProt P49643 1-509, looked up)
chain: MEFSGRKWRKLRLAGDQRNASYPHCLQFYLQPPSENISLIEFENLAIDRVKLLKSVENLGVSYVKGTEQYQSKLESELRKLKFSYRENLEDEYEPRRRDHISHFILRLAYCQSEELRRWFIQQEMDLLRFRFSILPKDKIQDFLKDSQLQFEAISDEEKTLREQEIVASSPSLSGLKLGFESIYKIPFADALDLFRGRKVYLEDGFAYVPLKDIVAIILNEFRAKLSKALALTARSLPAVQSDERLQPLLNHLSHSYTGQDYSTQGNVGKISLDQIDLLSTKSFPPCMRQLHKALRENHHLRHGGRMQYGLFLKGIGLTLEQALQFWKQEFIKGKMDPDKFDKGYSYNIRHSFGKEGKRTDYTPFSCLKIILSNPPSQGDYHGCPFRHSDPELLKQKLQSYKISPGGISQILDLVKGTHYQVACQKYFEMIHNVDDCGFSLNHPNQFFCESQRILNGGKDIKKEPIQPETPQPKPSVQKTKDASSALASLNSSLEMDMEGLEDYFSEDS
B5: POLD1 (a DNA polymerase subunit) (natural protein, human (endogenous in HeLa), UniProt P28340 1-1107, looked up)
chain: MDGKRRPGPGPGVPPKRARGGLWDDDDAPRPSQFEEDLALMEEMEAEHRLQEQEEEELQSVLEGVADGQVPPSAIDPRWLRPTPPALDPQTEPLIFQQLEIDHYVGPAQPVPGGPPPSRGSVPVLRAFGVTDEGFSVCCHIHGFAPYFYTPAPPGFGPEHMGDLQRELNLAISRDSRGGRELTGPAVLAVELCSRESMFGYHGHGPSPFLRITVALPRLVAPARRLLEQGIRVAGLGTPSFAPYEANVDFEIRFMVDTDIVGCNWLELPAGKYALRLKEKATQCQLEADVLWSDVVSHPPEGPWQRIAPLRVLSFDIECAGRKGIFPEPERDPVIQICSLGLRWGEPEPFLRLALTLRPCAPILGAKVQSYEKEEDLLQAWSTFIRIMDPDVITGYNIQNFDLPYLISRAQTLKVQTFPFLGRVAGLCSNIRDSSFQSKQTGRRDTKVVSMVGRVQMDMLQVLLREYKLRSYTLNAVSFHFLGEQKEDVQHSIITDLQNGNDQTRRRLAVYCLKDAYLPLRLLERLMVLVNAVEMARVTGVPLSYLLSRGQQVKVVSQLLRQAMHEGLLMPVVKSEGGEDYTGATVIEPLKGYYDVPIATLDFSSLYPSIMMAHNLCYTTLLRPGTAQKLGLTEDQFIRTPTGDEFVKTSVRKGLLPQILENLLSARKRAKAELAKETDPLRRQVLDGRQLALKVSANSVYGFTGAQVGKLPCLEISQSVTGFGRQMIEKTKQLVESKYTVENGYSTSAKVVYGDTDSVMCRFGVSSVAEAMALGREAADWVSGHFPSPIRLEFEKVYFPYLLISKKRYAGLLFSSRPDAHDRMDCKGLEAVRRDNCPLVANLVTASLRRLLIDRDPEGAVAHAQDVISDLLCNRIDISQLVITKELTRAASDYAGKQAHVELAERMRKRDPGSAPSLGDRVPYVIISAAKGVAAYMKSEDPLFVLEHSLPIDTQYYLEQQLAKPLLRIFEPILGEGRAEAVLLRGDHTRCKTVLTGKVGGLLAFAKRRNCCIGCRTVLSHQGAVCEFCQPRESELYQKEVSHLNALEERFSRLWTQCQRCQGSLHEDVICTSRDCPIFYMRKKVRKDLEDQEQLLRRFGPPGPEAW

Experiments:
[1] = biological target: Cu/Zn superoxide dismutase (SOD1) (human (endogenous in HeLa), UniProt P00441 1-154); assay: co-IP
[2] = biological target: B1; assay: co-IP

Chain of Cu/Zn superoxide dismutase (SOD1) (P00441 whole entry): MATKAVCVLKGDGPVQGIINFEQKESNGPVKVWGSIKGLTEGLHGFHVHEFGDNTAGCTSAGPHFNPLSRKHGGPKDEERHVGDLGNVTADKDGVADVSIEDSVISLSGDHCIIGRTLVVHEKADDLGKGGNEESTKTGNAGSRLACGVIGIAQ

Row | co-precipitated amount after H2O2 treatment, percent of control [1] [%] | co-precipitated amount after H2O2 treatment, percent of that without H2O2 [2] [%] | Binder | further results
1 | 170 | – | B1 | –
2 | – | – | B2 | co-precipitated amount after H2O2 treatment, percent of control [2]: 139%
3 | 180 | – | B3 | –
4 | – | 175 | B4 | co-precipitated amount after H2O2 treatment, percent of that without H2O2 [1]: 130%
5 | – | 190 | B5 | –
